In the DeepSol protein solubility set:

Assay: soluble on expression in E. coli; label from the status in PepcDB or PDB records

Sequence | soluble on expression in E. coli
MGSDKIHHHHHHLYFLDNQLAQQIVDRTMAIIGHNINVMNSQGVILGSGEPHRIGSTHEGALLAISQNRTVELNSASAASLQGVKPGINLPLHYQGEIIGVIGITGEPEHLKAFGELLKMTAEMIVEQANSLDVAQWRARQQEEFILQLIKPEGRDLNHLKIWAQRLDIDLEMPRVAAVLRISDDAGDELANSQLKTVLHLLETPSRGNLIAMTSMTELVILKPAFLDGKAWSAEAESLRIDRLLKRLPSELNARLKISLGHYFPATMDINRSYQTALETLNFGQQLHPEQSKYLYEDHALLVMLSGLKHDWRGEQLLRPFQRLIDRDKNALLRKTLASYLGHFGDQQACAKALFIHRNTLRYRLDKIAQITKVDIQKLDGLLQLYLGQVLLSRGQDQG | not soluble
MTKSQQKVSSIEKLSNQEGIISALAFDQRGALKRMMAEHQSETPTVEQIEQLKVLVSEELTQYASSILLDPEYGLPASDARNNDCGLLLAYEKTGYDVNAKGRLPDCLVEWSAKRLKEQGANAVKFLLYYDVDDTEEINIQKKAYIERIGSECVAEDIPFFLEVLTYDDNIPDNKSAEFAKVKPRKVNEAMKLFSEDCFNVDVLKVEVPVNMNFVEGFSEGEVVYTKEEAAQHFRDQDAATHLPYIYLSAGVSAELFQDTLKFAHDSGAQFNGVLCGRATWSGAVKVYIEEGEQAAREWLRTVGFKNIDDLNTVLKTTATSWKNK | soluble
MGSDKIHHHHHHMLKGIPHDSPLYEVDEDRGIEYRNCDAIVGFFTIKGDVSDLLPEGLKAYSKPAQGGIWISHYSFSTVGEYHEYLTVIQVEDEQGDMGYYIPYIYVTNDSALAAGRELAGAPKKLANIGLVKELDVVMGYLERPTGKRLVTFVMKPNTRALGGMIDFVLPKPTYLYSVRHLPPIKGKGGVTQLVKWYADIDFHVDPKGERAIFMGPGNITYDSPSVIDPVHKVEIDTLMTALYFQFDMKLGFVDILREY | not soluble
MAHHHHHHMNSNPTTEMTTTKKEHSQDNMCEIMNKSDKNNNSSLSSRSEKSQSEEIKLCNSGIFNEDKEKQYNDFLKSYNAEYSVEQMKNFLKNGITENGVRILTTDKCSWLYDYYRITKTSDPCVKELTGNTTVDYYYYTTPFSTQIGNINLVMMHSQVNFGDGTCAPADRFFKMNSTTPEMIKEAKLKAKNFQYECMQYI | not soluble
MGSDKIHHHHHHQVSGDTVKIGFITDLSGLYADIDGQGGVEAIKMAIEDAGGKVLGKPIELVTADHQNKADIAASKAREWMDQQGLDVLIGGTNSGTALAMNKVAAEKKRVYINNGAGTARLTNEECSPYTVHYAYDTVALAKGTGSAVVKQGGKSWFFLTADYAFGHSLESDTAAVVKANGGTVLGSVRHPLSASDFSSFLLQAQASKAQILGLANAGGDTINSIKAAKEFGITKTMKIAGLLMFINDIHSLGLKNTEGLLMTDSWYWDMNDDTRKFANRYFSKMKKMPSSLQAADYSAVSTYLKAVAAAKTDDPDKVMAELKKTKINDFYTKGYIRQDGRGIHDMYLMQVKSPAESKKPWDYLKIVATIPGDQAFTTVAESKCSMMKK | not soluble
LPAGLYFVGTPIGSARDITLRALDVLASAEVIAAEDTRSLRHLLDIHGVPLDGRRVLAYHDHSGAGAQARLLEALAEGKSVAYASEAGMPLIADPGFELSRAAAEAGHMVTCAPGPS | not soluble
SHMPASVQLHTAVEMHHWCIPFSVDGQPAPSLRWLFNGSVLNETSFIFTEFLEPAANETVRHGCLRLNQPTHVNNGNYTLLAANPFGQASASIMAAFMDNPFEFNPEDPIPDTNSTSGDPVEKKDE | soluble
REFAPPPNLPDPKFESKAALLAARGPEELLCFTERLEDLVCFWEEAASAGVGPGQYSFSYQLEDEPWKLCRLHQAPTARGAVRFWCSLPTADTSSFVPLELRVTAASGAPRYHRVIHINEVVLLDAPVGLVARLADESGHVVLRWLPPPETPMTSHIRYEVDVSAGQGAGSVQRVEILEGRTECVLSNLRGRTRYTFAVRARMAEPSFGGFWSEWSEPVSLLTPSDLD | soluble
MGSDKIHHHHHHMLTRLELAKDWVRDAGNFLKENIAAPLEITEKTRYDDLVTNFDKEVQEQIVANILHHFPEDKILAEEDEEKIKFDSEIPHLWVLDPIDGTTNFIVQKDNFAVMLAYYEYGVGKFGLILDVMKDKLYWCDSHKAFCNQKELELKERPLAQSLLGVNSYMYRSNSGGLLDLSHQTLGVRIIGSAGISYGQLLEGKIIGYFSSLQPWDYAAGSIIAERIGYVTLTISGESPHFNCRERVFTAPSYLISEIQKYIKK | not soluble
